From patent US20260078148A1 come the findings set out here.

The assay has as its target CD2. The experiment in a line: flow cytometry on primary human T cells at day 5; CD2 detected with the competing clone RPA-2.10. For orientation: A flow cytometer gives signals particle by particle.

CD2, sequence (receptor chain, as listed by the source limits assumed, form in doubt): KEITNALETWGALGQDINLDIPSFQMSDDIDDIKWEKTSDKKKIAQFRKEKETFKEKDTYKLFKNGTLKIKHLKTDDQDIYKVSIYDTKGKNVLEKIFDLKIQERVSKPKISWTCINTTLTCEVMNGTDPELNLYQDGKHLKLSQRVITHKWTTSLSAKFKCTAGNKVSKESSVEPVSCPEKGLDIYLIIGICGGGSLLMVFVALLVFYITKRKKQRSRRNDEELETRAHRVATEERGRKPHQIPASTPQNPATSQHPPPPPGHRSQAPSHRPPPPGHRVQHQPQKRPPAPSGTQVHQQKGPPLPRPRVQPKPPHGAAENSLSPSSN

For CD2 RPA naked (antibody), the IC50 (read off the curve) stood at 0.08 nM.
